# From PMC4691284
# Molecular target: Fer F-BAR domain (human) (UniProt P16591)
# Assay: AUC
# Sequence of Fer F-BAR domain (P16591 1-264): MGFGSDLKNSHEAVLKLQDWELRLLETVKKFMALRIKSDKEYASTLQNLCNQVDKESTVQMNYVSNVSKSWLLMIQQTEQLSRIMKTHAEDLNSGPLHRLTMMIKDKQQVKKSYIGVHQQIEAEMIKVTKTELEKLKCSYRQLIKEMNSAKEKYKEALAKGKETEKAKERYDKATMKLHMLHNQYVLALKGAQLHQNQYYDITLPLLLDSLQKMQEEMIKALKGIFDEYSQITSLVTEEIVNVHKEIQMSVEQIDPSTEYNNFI
substance,measurement,value
Fer F-BAR domain (from UniProt P16591 1-259) (domain or fragment),stoichiometry N,2 dimers
